These results are taken from PMC6128766 (Nature structural & molecular biology, 2018).

The series deals with the molecule itself. Kind of series: cryo-EM structure.

B1: TRPV3(Y564A) (natural protein, mouse, UniProt Q8K424 1-791, looked up)
chain: MNAHSKEMAPLMGKRTTAPGGNPVVLTEKRPADLTPTKKSAHFFLEIEGFEPNPTVTKTSPPIFSKPMDSNIRQCLSGNCDDMDSPQSPQDDVTETPSNPNSPSANLAKEEQRQKKKRLKKRIFAAVSEGCVEELRELLQDLQDLCRRRRGLDVPDFLMHKLTASDTGKTCLMKALLNINPNTKEIVRILLAFAEENDILDRFINAEYTEEAYEGQTALNIAIERRQGDITAVLIAAGADVNAHAKGVFFNPKYQHEGFYFGETPLALAACTNQPEIVQLLMENEQTDITSQDSRGNNILHALVTVAEDFKTQNDFVKRMYDMILLRSGNWELETMRNNDGLTPLQLAAKMGKAEILKYILSREIKEKPLRSLSRKFTDWAYGPVSSSLYDLTNVDTTTDNSVLEIIVYNTNIDNRHEMLTLEPLHTLLHTKWKKFAKYMFFLSFCFYFFYNITLTLVSYYRPREDEDLPHPLALTHKMSWLQLLGRMFVLIWATCISVKEGIAIFLLRPSDLQSILSDAWFHFVFFVQAVLVILSVFLYLFAYKEYLACLVLAMALGWANMLAYTRGFQSMGMYSVMIQKVILHDVLKFLFVYILFLLGFGVALASLIEKCSKDKKDCSSYGSFSDAVLELFKLTIGLGDLNIQQNSTYPILFLFLLITYVILTFVLLLNMLIALMGETVENVSKESERIWRLQRARTILEFEKMLPEWLRSRFRMGELCKVADEDFRLCLRINEVKWTEWKTHVSFLNEDPGPIRRTADLNKIQDSSRSNSKTTLYAFDELDEFPETSV
As to B1, the binding result was “binds”.
